Laboratory results as given in article PMC9104551.

System: XylR (ROK family transcriptional regulator) (Paenibacillus polymyxa ATCC842)
Assay: EMSA
Details: Chemiluminescent EMSA Kit (Beyotime), biotinylated PCR probes; XylR 0.02-0.1 g/L (protein:probe 20.9-104.4) for BST/DTE; buffer, pH, temperature not stated

| Substance | binding signal |
| --- | --- |
| -1C (A/T to C/G outside site) | 50.8 % bound |
| -1G (A/T to G/C outside site) | 64.5 % bound |
| -1T (A/T to T/A outside site) | 61.3 % bound |
| -2C (A/T to C/G outside site) | 57.6 % bound |
| -2G (A/T to G/C outside site) | 60.8 % bound |
| -2T (A/T to T/A outside site) | 65.4 % bound |
| BST 1C (A/T to C/G) | 19.8 % bound |
| BST 1G (A/T to G/C) | 18.8 % bound |
| BST 1T (A/T to T/A) | 30 % bound |
| BST 17A (G71A) | 1.9 % bound |
| BST 17C (G71C) | 63.5 % bound |
| BST 17T (G71T) | 52.1 % bound |
| BST (full predicted site) | 70 % bound |
